Data from PMC3081289 (2011).

Biological target: T1, Vascular Endothelial Growth Factor (VEGF), receptor binding domain, VEGF_(8–109) (human)
T1 chain: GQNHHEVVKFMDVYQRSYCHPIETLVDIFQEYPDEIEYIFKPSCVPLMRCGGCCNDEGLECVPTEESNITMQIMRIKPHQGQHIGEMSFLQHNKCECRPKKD
Assay: SPR

B1: bH1-44 Fab (affinity-improved variant of bH1) (Fab, V domains shown)
VH: EVQLVESGGGLVQPGGSLRLSCAASGFNISGTYIHWVRQAPGKGLEWVARIYPSEGYTRYADSVKGRFTISADTSKNTAYLQMNSLRAEDTAVYYCSRWVGVGFYAMDYWGQGTLVTVSS
VL: DIQMTQSPSSLSASVGDRVTITCRASQNIAKTISGYVAWYQQKPGKAPKLLIYWGSFLYSGVPSRFSGSGSGTDFTLTISSLQPEDFATYYCQQHYSSPPTFGQGTKVEIK
koff: 0.0014 s⁻¹
